Source: patent US20240425846A1
Values belong to the binder of their own block, whether it stands above or below them.

Legend:
[1] = target: biotinylated human Her2 (HE2-H822R, Acro Biosystems) (human) (UniProt P04626); assay: BLI (Octet), Her2-biotin on streptavidin tip, Fab at 20 nM, 1:1 fit; the filing doubts the fit because the response was low
[2] = target: biotinylated human Her2 (HE2-H822R, Acro Biosystems) (human) (UniProt P04626); assay: deep screening, equilibrium fit
[3] = target: biotinylated human Her2 (HE2-H822R, Acro Biosystems) (human) (UniProt P04626); assay: deep screening, equilibrium fit (column DS KD (M))
[4] = target: biotinylated human Her2 (HE2-H822R, Acro Biosystems) (human) (UniProt P04626); assay: deep screening, equilibrium fit (column DS KD (M)); remark: listed apart in the source
[5] = target: biotinylated human Her2 (HE2-H822R, Acro Biosystems) (human) (UniProt P04626); assay: deep screening, biphasic dissociation fit, phase 1
[6] = target: biotinylated human Her2 (HE2-H822R, Acro Biosystems) (human) (UniProt P04626); assay: deep screening, biphasic dissociation fit, phase 2
[7] = target: biotinylated human Her2 (HE2-H822R, Acro Biosystems) (human) (UniProt P04626); assay: flow cell kinetic dissociation, ribosome-displayed scFv, buffer wash after Her2-biotin/AF532-streptavidin
[8] = target: biotinylated human Her2 (HE2-H822R, Acro Biosystems) (human) (UniProt P04626); assay: flow cell equilibrium binding, ribosome-displayed scFv, 0.03-100 nM Her2-biotin and 100 nM AF532-streptavidin
[9] = target: biotinylated human Her2 (HE2-H822R, Acro Biosystems) (human) (UniProt P04626); assay: deep screening ('HER2affmat'), ribosome-displayed scFv on flow cell, 5 minutes of wash after 100 nM Her2-biotin:AF532-streptavidin

Kd [1]: 46.9 nM
B1: G98A Fab (Fab)
VH: MQVQLVQSGAEVKKPGESLKISCKGSGYSFTSYWIAWVRQMPGKGLEYMGLIYPGDSDTKYSPSFQGQVTISVDKSVSTAYLQWSSLKPSDSAVYFCARHDVAYCSSSNCAKWPEYFQHWGQGTLVTVSSGGGGSGGGGSGGGGSQSVLTQPPSVSAAPGQKVTISCSGSSSNIGNNYVSWYQQLPGTAPKLLIYGHTNRPAGVPDRFSGSKSGTSASLAISGFRSEDEADYYCASWDYTLSGWVFGGGTKLTVLG
VL: B1 VH

Kd [2]: 886 nM
Kd [3]: 24 nM
Kd [4]: 887 nM
koff [5]: 7.03e-05 s⁻¹
koff [6]: 0.0134 s⁻¹
koff [7]: 0.000567 s⁻¹
Kd [8]: 16.2 nM
fluorescent intensity at the 5-minute wash step [9]: 190
B2: Her2_G98A scFv (scFv)
scFv: MQVQLVQSGAEVKKPGESLKISCKGSGYSFTSYWIAWVRQMPGKGLEYMGLIYPGDSDTKYSPSFQGQVTISVDKSVSTAYLQWSSLKPSDSAVYFCARHDVAYCSSSNCAKWPEYFQHWGQGTLVTVSSGGGGSGGGGSGGGGSQSVLTQPPSVSAAPGQKVTISCSGSSSNIGNNYVSWYQQLPGTAPKLLIYGHTNRPAGVPDRFSGSKSGTSASLAISGFRSEDEADYYCASWDYTLSGWVFGGGTKLTVLGYMASGAEFGSGGQKQAEEAAAKAAADAKAKAEADAKAAEEAAKKAAADAKKKAEA
